# Measured values from patent US20230140868A1, “COMPOSITIONS AND METHODS FOR TREATING CANCER” (Alpha Beta Holdings, LLC, priority 2020, published 2023).
# B1: LM609: mouse monoclonal IgG1K antibody that recognizes human integrin αvβ3; SEQ ID NO:11 and 12 (antibody)
# heavy: MNFGLRLIFLVLTLKGVKCEVQLVESGGGLVKPGGSLKLSCAASGFAFSSYDMSWVRQIPEKRLEWVAKVSSGGGSTYYLDTVQGRFTISRDNAKNTLYLQMSSLNSEDTAMYYCARHNYGSFAYWGQGTLVTVSAAKTTPPSVYPLAPGSAAQTNSMVTLGCLVKGYFPEPVTVTWNSGSLSSGVHTFPAVLQSDLYTLSSSVTVPSSTWPSETVTCNVAHPASSTKVDKKIVPRDCGCKPCICTVPEVSSVFIFPPKPKDVLTITLTPKVTCVVVDISKDDPEVQFSWFVDDVEVHTAQTQPREEQFNSTFRSVSELPIMHQDWLNGKEFKCRVNSAAFPAPIEKTISKTKGRPKAPQVYTIPPPKEQMAKDKVSLTCMITDFFPEDITVEWQWNGQPAENYKNTQPIMDTDGSYFVYSKLNVQKSNWEAGNTFTCSVLHEGLHNHHTEKSLSHSPGK
# light: MVFTPQILGLMLFWISASRGDIVLTQSPATLSVTPGDSVSLSCRASQSISNHLHWYQQKSHESPRLLIKYASQSISGIPSRFSGSGSGTDFTLSINSVETEDFGMYFCQQSNSWPHTFGGGTKLEIKRADAAPTVSIFPPSSEQLTSGGASVVCFLNNFYPKDINVKWKIDGSERQNGVLNSWTDQDSKDSTYSMSSTLTLTKDEYERHNSYTCEATHKTSTSPIVKSFNRNEC
# modifications: mAb LM609-mIgG1-kappa Heavy chain; mAb LM609-mIgG1-kappa Light chain
# Columns and labels:
# tumor cells [1] = test: In vitro ADCC with mouse NK cells; assay type: cell-based; details: effector: mouse NK cells
# Experimental: (§1) We used the isolated macrophages as effector cells in an antibody-dependent cellular-cytotoxicity (ADCC) assay. […] The ratio of dead target cells (PI-positive) to the total target cell population (CFSE-positive) was calculated as described (Bracher, 2007).
# (§2) To our surprise, LM609-mediated ADCC was not achieved with mouse NK cells or peripheral blood mononuclear cells (PBMCs) isolated from human blood, immune effector cell types to which antibodies are commonly engineered for optimal binding (Listinsky, 2013; Yu, 2017). In fact, NK cells are not correlated with β3 expression in tumors. These findings were reported in FIG. 3E of Wettersten et al., Cancer Res. 79:5048 (2019).
# [2] = tested on: HCC827-R18 erlotinib-resistant tumor cells; test: Re-sensitization of erlotinib-resistant HCC827-R18 xenografts (FIG. 1); assay type: in vivo, nu/nu mice; details: LM609 i.p., 10 mg/kg, twice/week with erlotinib 6.25 mg/kg vs erlotinib alone
# Experimental: HCC827-R18 and PC9-R4L erlotinib-resistant tumor cells generated as reported in Wettersten et al., Cancer Res. 79:5048 (2019), incorporated by reference herein in its entirety, were injected to form subcutaneous flank tumors in nu/nu recipient mice. […] Tumor dimensions were measured biweekly and volume calculated as […].
# To generate erlotinib-resistant tumors […], HCC827 or PC9 human lung cancer cells (5×10^6 tumor cells in 100 μl of PBS) were subcutaneously injected to the right flank of female nu/nu mice (Charles River, 088, 8-10 weeks old) and tumors were measured with calipers twice per week. Animals with a tumor volume of 100-200 mm^3 were randomly assigned into groups treated with combinations of Captisol (oral, six times/week) or erlotinib (oral, 6.25 mg/kg, six times/week). For each of the individual tumors shown in Figure S3 of Wettersten et al., Cancer Res. 79:5048 (2019)}, vehicle-treated erlotinib sensitive (HCC827-P and PC9-P) and erlotinib-resistant (HCC827-R18 and PC9-R4L) cells were isolated. A gain of αvβ3 expression on the cell surface of the erlotinib-resistant tumor cells was confirmed by flow cytometry.
# tumor cells [3] = test: In vitro ADCC with TAMs isolated from mouse Lewis lung carcinoma tumors; assay type: cell-based; details: effector: TAMs from LLC tumors grown in C57BL6 or athymic nude mice
# Experimental: TAMs were isolated from tumor tissues as described (Kaneda, 2016). Tumors were dissociated in HBSS containing collagenase IV (Sigma, C5138), hyaluronidase (Sigma, H2654), dispase 11 (Roche, 04942078001), and DNase IV (Millipore, D5025) at 37° C. for 15 minutes. Cell suspensions were filtered through 70 μm cell strainers and washed with PBS. Single cell suspensions (10^6 cells/100 μl in 5% BSA in PBS) were incubated with Mouse BD Fc Block™ (BD Biosciences, 553142, 1:50) for 10 minutes at 4° C. and fluorescently labeled antibodies, CD11b (eBioscience, 17-0112-81, 1:100), and Ly-6G (eBioscience, 25-5931-81, 1:100), for one hour at 4° C. TAMs (CD11b-positive, Ly-6G-negative) were sorted.
# as §1
# [4] = tested on: αvβ3-expressing tumor cell lines; test: Macrophage-mediated killing: Fc dependence, ADCC vs ADCP vs direct killing; assay type: cell-based
# Experimental: as §1
# These findings were reported in FIGS. 3C-3D of Wettersten et al., Cancer Res. 79:5048 (2019).
# Monoclonal antibodies can direct macrophages to induce tumor cell killing through two primary mechanisms, processes known as antibody-dependent cellular phagocytosis (ADCP) and antibody-dependent cellular cytotoxicity (ADCC). […] The lack of an ADCP response is consistent with high tumor cell expression of CD47, the “don't eat me” signal (Chao, 2012) that tumor cells often exploit to evade phagocytosis.
# [5] = tested on: αvβ3-expressing human pancreatic xenograft tumors; test: αvβ3-expressing human pancreatic xenograft with or without macrophage depletion; assay type: in vivo, nude mice
# From the text: (§3) Successful depletion of macrophages by clodronate treatment was confirmed by staining tumor sections for the mouse macrophage marker F4/80.
# tumor cells [6] = test: In vitro ADCC with human PBMCs; assay type: cell-based; details: effector: PBMCs isolated from human blood
# Experimental: (§4) Human peripheral blood mononuclear cells (PBMCs) and macrophages were isolated using leukoreduction system chambers (LRSC) purchased from the San Diego Blood Bank. PBMCs were isolated from LRSC using Histopaque-1083 (Sigma, 10831) following the manufacturer's protocol. To obtain macrophages, PBMCs were incubated in tissue culture plates with human M-CSF (Peprotech, 300-25) for 5 days.
# as §1, §2
# [7] = tested on: αvβ3-expressing human lung cancer cells; test: In vitro ADCC, primary human monocyte-derived macrophages as effector cells (FIG. 10A); assay type: cell-based; details: increasing E:T
# From the text: (A) In vitro ADCC for primary human monocyte-derived macrophages as effector cells. (B). In vitro ADCC for human NK cells as effector cells. Graphs show effect of increasing effector-to-target ratio (E:T) on death of αvβ3-expressing human lung cancer cells.
# This distinction could produce a therapeutic advantage by achieving matching between the antigen (integrin αvβ3) and the types of effector cells that are particularly enriched in αvβ3-expressing tumors, such as macrophages.
# tumor cells [8] = test: In vitro ADCC with mouse bone marrow derived macrophages (LM609); assay type: cell-based; details: effector: BMDM isolated from healthy mice
# Experimental: Mouse bone marrow-derived macrophages (BMDMs) were aseptically harvested from euthanized 8-10 week-old female C57BL/6 mice by flushing leg bones with RPMI, filtering through 70 μm cell strainers, and incubating in Red Blood Cell Lysing Buffer Hybri-Max™ (Sigma, R7757). Cells were incubated with mouse M-CSF (Peprotech, 315-02) for 7 days before ADCC assays.
# as §1
# integrin αvβ3 = integrin αvβ3 (Homo sapiens, UniProt P05106+P06756); details: human cells; Cheresh, 1987; cited from earlier work
# [9] = tested on: αvβ3-expressing human lung xenograft tumors; test: αvβ3-expressing human lung xenograft with or without macrophage depletion; assay type: in vivo, nude mice
# From the text: as §3
# tumor cells [10] = test: In vitro ADCC with human monocyte-derived macrophages from healthy donor blood (LM609); assay type: cell-based; details: effector: human monocyte-derived macrophages from healthy donor blood
# Experimental: as §4, §1
# [11] = additional αvβ3-expressing tumor cell lines: lung, pancreas, brain, kidney cancer
# [12] = macrophage depletion using clodronate liposomes
# [13] = reported in FIG. 2A of Wettersten et al.
# Chain of integrin αvβ3 (P06756 31-889 limits assumed): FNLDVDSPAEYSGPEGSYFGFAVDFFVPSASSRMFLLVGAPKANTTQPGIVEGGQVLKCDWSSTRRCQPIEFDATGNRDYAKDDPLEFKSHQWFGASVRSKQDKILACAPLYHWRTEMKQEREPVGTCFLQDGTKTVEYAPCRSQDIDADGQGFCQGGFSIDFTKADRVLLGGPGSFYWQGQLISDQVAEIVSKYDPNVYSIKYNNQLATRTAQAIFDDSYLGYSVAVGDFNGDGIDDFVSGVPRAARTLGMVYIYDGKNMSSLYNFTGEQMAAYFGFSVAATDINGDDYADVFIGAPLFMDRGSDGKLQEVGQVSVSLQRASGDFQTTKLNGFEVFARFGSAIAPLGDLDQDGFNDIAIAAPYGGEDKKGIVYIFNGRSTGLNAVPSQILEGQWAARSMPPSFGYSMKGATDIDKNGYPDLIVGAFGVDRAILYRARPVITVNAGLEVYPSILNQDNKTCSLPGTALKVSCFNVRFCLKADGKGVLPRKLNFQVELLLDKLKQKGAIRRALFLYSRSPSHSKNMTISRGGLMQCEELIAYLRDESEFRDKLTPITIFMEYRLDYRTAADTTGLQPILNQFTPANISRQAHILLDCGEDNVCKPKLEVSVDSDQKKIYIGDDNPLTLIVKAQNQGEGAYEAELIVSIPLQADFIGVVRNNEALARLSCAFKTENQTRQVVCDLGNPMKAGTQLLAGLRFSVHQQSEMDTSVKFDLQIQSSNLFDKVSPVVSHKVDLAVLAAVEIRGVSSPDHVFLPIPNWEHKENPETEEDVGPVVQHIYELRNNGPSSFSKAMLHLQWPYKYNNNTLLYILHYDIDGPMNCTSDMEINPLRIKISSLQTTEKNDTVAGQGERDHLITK
# Chain of integrin αvβ3 (P06756 891-1048 limits assumed): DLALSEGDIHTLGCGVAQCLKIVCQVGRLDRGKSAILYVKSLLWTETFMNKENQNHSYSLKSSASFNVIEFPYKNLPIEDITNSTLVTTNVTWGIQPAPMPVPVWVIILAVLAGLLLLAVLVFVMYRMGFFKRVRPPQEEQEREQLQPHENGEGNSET
# Chain of integrin αvβ3 (P05106 27-788): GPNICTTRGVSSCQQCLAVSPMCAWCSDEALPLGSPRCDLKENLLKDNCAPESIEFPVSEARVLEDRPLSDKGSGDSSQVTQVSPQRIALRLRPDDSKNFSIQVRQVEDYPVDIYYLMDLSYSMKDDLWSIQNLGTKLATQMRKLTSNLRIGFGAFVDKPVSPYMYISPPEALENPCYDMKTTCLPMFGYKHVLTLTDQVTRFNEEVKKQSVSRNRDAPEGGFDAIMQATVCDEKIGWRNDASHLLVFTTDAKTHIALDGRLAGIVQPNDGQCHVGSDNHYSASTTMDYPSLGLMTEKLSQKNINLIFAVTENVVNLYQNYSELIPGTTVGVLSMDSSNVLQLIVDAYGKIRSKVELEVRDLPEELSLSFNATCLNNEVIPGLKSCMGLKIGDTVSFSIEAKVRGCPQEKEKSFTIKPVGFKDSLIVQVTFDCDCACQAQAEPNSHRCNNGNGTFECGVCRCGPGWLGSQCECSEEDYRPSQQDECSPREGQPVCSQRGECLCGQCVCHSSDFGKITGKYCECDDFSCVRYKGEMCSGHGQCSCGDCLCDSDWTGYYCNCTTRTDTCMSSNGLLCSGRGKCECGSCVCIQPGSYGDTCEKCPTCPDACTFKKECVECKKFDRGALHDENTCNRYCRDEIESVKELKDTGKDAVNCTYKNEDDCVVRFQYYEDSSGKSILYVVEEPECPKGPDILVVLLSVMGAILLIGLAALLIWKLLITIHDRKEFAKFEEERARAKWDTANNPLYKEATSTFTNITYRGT
molecule,measurement,setting,value
B1,LM609-mediated ADCC,tumor cells [1],not achieved
same,re-sensitization of resistant tumors to erlotinib (tumor volume),[2],able to re-sensitize resistant tumors to the growth inhibitory effects of erlotinib
same,ADCC activity,tumor cells [3],robust ADCC activity
same,ADCP,[4]; FIG. 3F of Wettersten et al.,not ADCP
same,direct killing,[4]; FIG. 3F of Wettersten et al.,not ADCP or direct killing
same,ADCP,[4]; [11],not ADCP
same,direct killing,[4]; [11],not ADCP or direct killing
same,macrophage-mediated ADCC,[4]; [11],also observed
same,macrophage-mediated killing,"[4]; in the presence of an antibody blocking the Fc receptors CD16, CD32, and CD64",no macrophage-mediated killing
same,macrophage ADCC,"[4]; required integrin β3 expression, FIG. 3F of Wettersten et al.",induced macrophage ADCC
same,anti-tumor effect after macrophage depletion,[5]; [12],completely blocked
same,sensitivity of xenograft tumors to LM609,[5]; [13],highly sensitive
same,LM609-mediated ADCC,tumor cells [6],not achieved
same,ADCC with human macrophages as effector cells,[7],able to induce ADCC
same,ADCC (tumor cell killing),tumor cells [8],could also kill tumor cells
same,recognition of integrin αvβ3,integrin αvβ3,recognizes integrin αvβ3 on human
same,anti-tumor effect after macrophage depletion,[9]; [12],completely blocked
same,sensitivity of xenograft tumors to LM609,[9]; [13],highly sensitive
same,ADCC (tumor cell killing),tumor cells [10],could also kill tumor cells
